According to publication PMC5702047:

Biological target: TRC40 (rabbit (endogenous in reticulocyte lysate))

reduction of the integration of Sec61βOPG2 and RAMP4OPG into RMs (N-glycosylation) in vitro, post-translational, with an excess of WRBcc: 50%
Substance: cytosolic domain of the WRB receptor (WRBcc) (domain or fragment)
